According to patent publication US9051572:

What was measured:
[1] = molecular target: in vitro translated [35S] TAp73α (UniProt O15350)
[2] = molecular target: Purified recombinant ubiquitin containing an amino terminal FLAG sequence (UniProt P0CG48)
[3] = molecular target: in vitro translated [35S] p53 (UniProt P04637)
[4] = molecular target: in vitro translated [35S] TAp73δ (UniProt O15350)

| Substance | in vitro ubiquitination (higher molecular weight [35S] species on SDS-PAGE) [1] | ELISA for self-ubiquitination of Itch, OD450 signal [2] | in vitro ubiquitination (higher molecular weight [35S] species on SDS-PAGE) [3] | in vitro ubiquitination (higher molecular weight [35S] species on SDS-PAGE) [4] |
| --- | --- | --- | --- | --- |
| GST-Itch MUT (C830A), Thr 277 to Glu 903 | this mutant, that retains the ability to bind TAp73 ... lost the ability to promote TAp73 ... ubiquitination | a background signal of 0.093 was obtained |  |  |
| GST-Itch, from Thr 277 to Glu 903 (lacking the N-terminal C2 domain) | protein was ubiquitinated, as shown by the appearance of discrete higher molecular weight | an assay OD450 signal of 1.972 was obtained | The inability of Itch to ubiquitinate p738 and p53 | The inability of Itch to ubiquitinate p738 and p53 |
